# Measurements from the DeepSol protein solubility set.
# Experiment: soluble on expression in E. coli; label from the status in PepcDB or PDB records
row,Sequence,soluble on expression in E. coli
1,MIVLGLEGTAHTISCGIIDESRILAMESSMYRPKTGGIRPLDAAVHHSEVIDTVISRALEKAKISIHDIDLIGFSMGPGLAPSLRVTATAARTISVLTGKPIIGVNHPLGHIEIGRRVTGAIDPVMLYVSGGNTQVIAHVNGRYRVLGETLDIGIGNMIDKFAREAGIPFPGGPEIEKLAMKGTKLLDLPYSVKGMDTAFSGILTAALQYLKTGQAIEDISYSIQETAFAMLVEVLERALYVSGKDEILMAGGVALNRRLRDMVTNMAREAGIRSYLTDREYCMDNGIMIAQAALLMYKSGVRMSVEETAVNPRFRIDEVDAPWITDASRKDYGKAGAESRIEEVSFHGRPAIRKVRISKSYRNSDLDKKIRYERMRNEFTILRKLKEAGVNSPVVYDFDPFSMSITMQKIPGRMMSAELNEGRTDFLNELGIMIAKMHRAGIAHGDLTVNNIIVNDSVFIIDPSMGKVNAEIEDMAVDIYALEDSIKGLGLDSGSVIGQMLKSYRNNFNLADDVLETVSAIRRRHRYV,soluble
2,MGSDKIHHHHHHMRIALDPYMYRHLSLGAMVDKTAELGYDYIELSPREDFMPFYKYPRVDRARIREFRKALSDAGVKLSSLLPLYHWAAPDEDLRIAAVRNWKRAIEVAVEMDCDLMNTEFSGQSDHALVCENQFMKSMDELMPHFEREGIKLDIQAHPYDFCERNNESVDIIRGLDRDWINYLYAAPHTFFYDDGVGDIASMLRYAGDRLTHLIIADTYNHRASSNLRYIVNPPGVTATVHQHLDIGQGEVNWEAFFSTLRDIKFDGIATVAVFAWEERADESSRFMLERVKSELLR,not soluble
3,MILVGNGRLISQDSLNPYMEDGCVVINDNLIEDIGTTEEMKAKYPVHEFIDAGKKIIMPGLINSHMHIYSSFARGMAVPGKPSENFLEILNNLWWRLDKQLTLEDTKYSAYATYIECIKNGVTTVYDHHASPNAIEGSLFTISDVAKDLGIRTCLCYEVSDRDGGNTIQQGINENVNFIKYAQKDDTDMIKGMFGLHAAFTLSDDTLNKCASEMAGLDTGYHVHVAEGLADLQYNVDKYGKRVLERFNDFGVLKEKTIAVHCIYISAEEISFLNKTNTFVVHNPESNMGNAVGCSPAIELLKRGVTVGLGTDGYTSDMFESLKVANIIHKHHLKDPRVGFEESQTMLFDNNRKIAKAYYKNDLGVLKKGAYADVIVVDYIPHTPLTENTIGGHTIFGMSGRSVDTTIINGKVLMKDRKLINIDEESILAKSRELSQNLWNRI,not soluble
4,MASTIYTCKECGSDLNLNPNDLFPPDFYFEAGNKGTLSFAAVDAEKFRFEKEDKIMPFFETLNYWGIQRKRTKIKCTSCNHLIGYIYDDGPPLTGGIGQYGFGPSQVIPRAPRYRFKTKARQDGWQYGGLTAFWN,not soluble
5,MGSDKIHHHHHHMNTTNQTAPQGFRLNALGHAVPESQIKEIDKLRDELVLQIVTAAKEMQGHMATYKATSMRAVADFIDLSASEFGVKFGGTKGNVSLVSFDGKYKVQRSIGEHRVFDERIQAAKSKIDDCIKRWSVGSNDHIKALVELSFKVNKQGYIDINQVLSLRQLDIDDTDWRSAMDAIADSIQVMGSTPYLRVYERQDDGTYKQISLDIAKL,not soluble
6,GPGSMEQWSACEAATRRVLAVDRTERYPSARRLVRVFISQGRLQEAQQAVSPHRDAIDWAAEVAAVKACTSYTNFYAAHQYSKALESLEVVLSLCPCGTLEAAKARLLSLENAAQAVSYAAQRSRAYATSTELHFCLWSLTFHSVTSVVGLDTLLADMQATPLGRSELRFRHLHTHIARCKEALAKLQVLKTARQWREAATFVTQVLAEPFLPDGLKGVMYYERARALAQQASWYATLDDTHRALSYTEAVSLRANMLLLVARCEEALGRLRDAVYHTEESLGLASNAAAVEQLRSLKARWAHVQASTDAPRTTPRTTSKETPKPNTNANAFSPVSRASLDVHYKTLSLPRSAGAAEVKKSYRALAIKWHPDRWCSASTEAIRTAESTFKTIQHAYEEIMKSAS,not soluble
7,MDHRAQAREVFVRAQLEAVQKAITKNEVPLKPKHARTIIVGTHKEKSSGIFWHTVGRIQLEKHPVLTWKFCHLVHKLLRDGHRKVPEETYRYVNRFTQLSQFWKHLNTSGYGPCIESYCKLLHDRVTFHNKYPVVPGKLDLNDSQLKTLEGDLDNMFEMTIDMLDQMDALLVLQDRVYEMMNSLRWNSLIPQGQCMLSPLIIAILDTSKFYDYLVKMIFKLHSQVPPDALEGHRSRFRTIFERTKKFYEESSNLQYFKYLVSIPTLPSHAPNFLQQSDLESYRTPHAYLHSEGSEDGTSLNGHDGELLNLAEAEPQQASPSSQPDPREEQIVMLSRAVEDEKFAKERLIQEARSRIEQYENRLLQMQGEFDHAKREADENREEAQRLKNELALRDASRTQTDDARVKEAELKATAAEERFNKMKGVYEKFRSEHVLALTKLGDIQKQLEASEKSKFDKDEEITALNRKVEEAQREAGRALTKAEGDAGAVDEMRTQLVKADIEVEELKRTIDHLRESHANQLVQSSAEETNKIRLAELEVAKESGVGITQMFDHCEDALQNATSITYPPHLAQSAMNNLVNILSNERLDEPLATKDNVFAGHLLSTTLSAAASAAYTASIESYEGVNDQCKKVLAAAKVAFSDDSALSRADKMKLLRQDIQTLNSLMISLPLQTDIDKDVVGNELEQEMRRMDDAIRRAVQEIEAIQRRARESSDGIRLEVNESILANCQALMSVIMQLVIASRELQTEIVAAGKAGGSPAEFYKRNHQWTEGLLSAAKAVGVAARVLVESADGVVTGKGKFEHLIVAAQEIAASTAQLFVSSRVKADKDSSKLDALSVAAKAVNQNTAQVVAAVKNGQTTLNDEGSLDFSYLSLHAAKKEEMESQVKMLELEQSLNQERAKLAALRKQHYHMAQLVANKEGEEAQE,not soluble
8,MTYVFGPVSSKRLGQSLGVDLLPSKSCTWNCIYCQLGRTTAFVTERREFFPKEEILSEILETVASGKPIDWITFVGSGETTLYKGLDWLIAEVKKISKIPVAVITNGSLLSDPEVRRELLEADAVLPSLNAGSPELFERIDRPAPGFTFEKHVEGLRLFRQEYRGKLWVEVMLIRGVNDSEEALKEMAAVLAEIRPDMIHLVMPTRPAPESFVGIPDEELIQRAVFVLSSSAPVLHPAKGEMNLGSVGNLLDTVAGIASRHPVQERELEAALGKLFDGDAAKIRETMGELLASGRFEKVRQGSELYWIVKSA,not soluble
9,MGSDKIHHHHHHMGKSKRKILNWKQYNQALVNRGSVTFWLDKSAINAWHCKAHHGGRGRGFQFSDTAIETALMLKGVFKLSLRATEGFINSLFRLMDVPLAAPDYTCISKRAKTVEVKYRNPCRGPVTHLVVDSTGLKVYGEGEWKTRKHGKERRRTWRKLHLAIDADTHDVVSAEVSLVNVADNEVLPTMLNPLRRKVNQVSADGAYDTKECHKLLRHKGAKPTIPPRSNAGYWEDGHPRNEAVEALKSGTLKQWKDDNDYHQRSLSETAMYRYKQLISSKLSLRDYNAQVGEALAGVKAMNKVIGLGMPVRQTTA,not soluble
10,MHIYRYEENPLITPEDVPPHHDGFEVIGAFNAGVARFQGEVLLLLRVAERPVSDDPNIVKAPVWNPKTGKVDVYEFRKDDPRYDFSDPRVIREAGAERFAYLTSLSYLRLARSQDGRRFVIDDRPFVYPSNELETFGIEDPRITYIDGTYYIYFSAVSPKGVGEAMVSTTDFRTVTHHGMIFAPENKDVLIFPEKINGKYYALHRPVPRSNGRPEVWIAESENLLHWGNHRFLFGLREGKWDSARIGGGAVPIKTEYGWLELYHGASDDHRYCMGAVLLDLNDPAKVIARSERPLVEPEADYEVNGFFGRVVFSCGALVDGDIVKMYYGAADTSMACVELKLDEILDSLVKV,soluble
11,MSLQIDEVSKKLNISKSMIRYYEEKGLINISRNQNNYREFNQTVYTTLKLIKDLKRLNLSLEEIKYIVNLFNKPTSKECNIQSTKYLDRIIKDYKRSINEQINILNRLEQVKELSQDMKFEENKTEILNMLAGVKEYDEGHHHHHH,not soluble
12,MSLIPSSGPSAKKVVSLGQQSEAQIPEVELIDVNHAVAQSLYKAQVNQSFTQFGDGYASTGTLNIGDVLDIMIWEAPPAVLFGGGLSSMGSGSAQQTKLPEQLVTARGTVSVPFVGDISVVGKTPGQVQEIIKGRLKKMANQPQVMVRLVQNNAANVSVIRAGNSVRMPLTAAGERVLDAVAAVGGSTANVQDTNVQLTRGNVVRTVALEDLVANPRQNILLRRGDVVTMITNPYTFTSMGAVGRTQEIGFSARGLSLSEAIGRMGGLQDRRSDARGVFVFRYTPLVELPAERQDKWIRQGYGSEAEIPTVYRVNMADAHSLFSMQRFPVKNKDVLYVSNAPLAEVQKFLSFVFSPVTSGANSINNLTNEGHHHHHH,soluble
